± gives the uncertainty stated by the source.
Assay: self-splicing fitness, log relative to wild type (ln ratio); higher = more splicing; Tetrahymena group I intron in knt gene, E. coli kanamycin selection, DiMSum; sequences stand for … in CUCUCU…GGAGGGAAAAGUUAUCAGGCAUGCACCUGGUAGCUAGUCUUUAAACCAAUAGAUUGCAUCGGUUUAAAAGGCAAGACCGUCAAAUUGCGGGAAAGGGGUCAACAGCCGUUCAGUACCAAGUCUCAGGGGAAACUUUGAGAUGGCCUUGCAAAGGGUAUGGUAAUAAGCUGACGGACAUGGUCCUAACCACGCAGCCAAGUCCUAAGUCAACAGAUCUUCUGUUGAUAUGGAUGCAGUUCACAGACUAAAUGUCGGUCGGGGAAGAUGUAUUCUUCUCAUAAGAUAUAGUCGGACCUCUCCUUAAUGGGAGCUAGCGGAUGAAGUGAUGCAACACUGGAGCCGCUGGGAACUAAUUUGUAUGCGAAAGUAUAUUGAUUAGUUUUGGAGUACUCGUGGUCG
Procedure, shortened: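 DiMSum derived fitness as the error-weighted combination of fold changes across replicates, kanamycin versus no kanamycin, normalised to wild type. E. coli BL21(DE3) held the library, which randomised all eight P1ex-region intron nucleotides within the knt kanamycin-resistance gene on pET-22b(+). Six replicate transformations grew overnight at 37°C or 30°C on LB agar with or without 25 μg/mL kanamycin, also containing 100 μg/mL carbenicillin, 50 μM IPTG and 0.2% rhamnose, and pooled colonies were amplicon-sequenced on an Illumina HiSeq 2500.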

Row | Sequence | self-splicing fitness (ln) (30 °C) | self-splicing fitness (ln) (37 °C)
1 | GGGAAGCAAUAUUACGGGCA | -1.9 ± 0.19 | 0.154 ± 0.21
2 | UUCGAGCAAUAUUACGGAUC |  | -1.85 ± 0.48
3 | UGUAAGCAAUAUUACGACCG | 0.431 ± 0.12 | 0.133 ± 0.18
4 | CACCAGCAAUAUUACGGUUU | -0.79 ± 0.045 | -0.0932 ± 0.065
5 | AGGCAGCAAUAUUACGUGUU | -1.85 ± 0.063 | -1.38 ± 0.088
6 | AUGAAGCAAUAUUACGCGCG | -0.094 ± 0.087 | -0.808 ± 0.098
7 | GAUGAGCAAUAUUACGGAGU | -3.16 ± 0.26 | -2.71 ± 0.38
8 | AUUUAGCAAUAUUACGAGCA | -1.66 ± 0.25 | -1.01 ± 0.18
9 | CAAAAGCAAUAUUACGAGUA | -3.32 ± 0.14 | -1.89 ± 0.11
10 | UGGGAGCAAUAUUACGUUGG | -3.45 ± 0.22 | -2.85 ± 0.26
11 | ACGGAGCAAUAUUACGCCCA | -2.81 ± 0.43 | -1.92 ± 0.37
12 | AUCCAGCAAUAUUACGGCUC | -1.39 ± 0.078 | -0.482 ± 0.099
13 | AAGCAGCAAUAUUACGGGUC | -3.12 ± 0.12 | -2.61 ± 0.18
14 | GGCAAGCAAUAUUACGAGUC | -2.64 ± 0.12 | -1.78 ± 0.13
15 | UAACAGCAAUAUUACGUUCU | -1.17 ± 0.08 | -0.668 ± 0.079
16 | CUUAAGCAAUAUUACGCCUG | -2.06 ± 0.1 | -0.858 ± 0.089
17 | CCACAGCAAUAUUACGUACU | -2.01 ± 0.12 | -1.93 ± 0.19
18 | UCCGAGCAAUAUUACGUUUU | -3.83 ± 0.25 | -0.687 ± 0.15
19 | GUUUAGCAAUAUUACGAAAA | -1.78 ± 0.29 | -0.97 ± 0.25
20 | AACGAGCAAUAUUACGCAUU | -1.24 ± 0.12 | -2.9 ± 0.24
21 | AGCUAGCAAUAUUACGGAAA | -3.11 ± 0.25 | -0.395 ± 0.16
22 | CAAAAGCAAUAUUACGCUCU | -1.6 ± 0.12 | -1.63 ± 0.16
23 | UGGUAGCAAUAUUACGCAUU | -1.88 ± 0.15 | -1.66 ± 0.19
24 | GCGUAGCAAUAUUACGACCU | -0.0292 ± 0.22 | -0.575 ± 0.34
25 | UGAGAGCAAUAUUACGGAGC | -2.21 ± 0.18 | -1.94 ± 0.19

Row | Sequence | self-splicing fitness (ln) (30 °C) | self-splicing fitness (ln) (37 °C)
26 | CCGAAGCAAUAUUACGGAGU | -1.88 ± 0.16 | -2.98 ± 0.25
27 | UAUCAGCAAUAUUACGCUUC | -2.82 ± 0.23 | -2.09 ± 0.27
28 | UAACAGCAAUAUUACGGAGU | -3.7 ± 0.17 | -1.41 ± 0.12
29 | GUGGAGCAAUAUUACGUGAU | -2.49 ± 0.12 | -1.6 ± 0.12
30 | GUGGAGCAAUAUUACGAGCG | -3.52 ± 0.38 | -1.62 ± 0.31
31 | CGCGAGCAAUAUUACGUUUG | -4.03 ± 0.21 | -1.91 ± 0.18
32 | ACGGAGCAAUAUUACGUUGA | -2.94 ± 0.2 | -2.29 ± 0.21
33 | UUCAAGCAAUAUUACGCAAA | -1.96 ± 0.16 | -0.991 ± 0.15
34 | ACGCAGCAAUAUUACGCCGA | -1.23 ± 0.099 | -0.977 ± 0.094
35 | AAGCAGCAAUAUUACGGGGU | -3.21 ± 0.13 | -2.56 ± 0.16
36 | GCCAAGCAAUAUUACGAUAC | -2.45 ± 0.17 | -0.963 ± 0.14
37 | GUUCAGCAAUAUUACGCGAU | -2.39 ± 0.13 | -2.74 ± 0.24
38 | AAUGAGCAAUAUUACGACUA | -2.47 ± 0.25 | -0.177 ± 0.21
39 | UAGUAGCAAUAUUACGAGCC | -2.98 ± 0.47 | -2.31 ± 0.42
40 | CGCAAGCAAUAUUACGCGCU | -3.78 ± 0.16 | -1.41 ± 0.12
41 | GAAAAGCAAUAUUACGCGCG | -0.276 ± 0.076 | -0.478 ± 0.11
42 | ACAAAGCAAUAUUACGGAUC | -2.77 ± 0.12 | -0.403 ± 0.11
43 | UGAUAGCAAUAUUACGUUAA | -2.02 ± 0.21 | -2.15 ± 0.26
44 | AAGAAGCAAUAUUACGGGAC | -2.85 ± 0.18 | -2.63 ± 0.44
45 | GUUUAGCAAUAUUACGAGGC | -2.48 ± 0.24 | -2.45 ± 0.24
46 | AAGCAGCAAUAUUACGGUCU | -0.0787 ± 0.043 | 0.176 ± 0.063
47 | AGUGAGCAAUAUUACGAAGC | -4.89 ± 0.46 | -1.55 ± 0.33
48 | ACUCAGCAAUAUUACGAGCU | -1.04 ± 0.064 | -0.447 ± 0.079
49 | GUUCAGCAAUAUUACGUAUU | -0.531 ± 0.057 | -0.576 ± 0.074
50 | AUGAAGCAAUAUUACGAUAG | -4.07 ± 0.39 | -2.33 ± 0.32

Row | Sequence | self-splicing fitness (ln) (30 °C) | self-splicing fitness (ln) (37 °C)
51 | AUGGAGCAAUAUUACGAUGG | -2.22 ± 0.29 | -2.47 ± 0.44
52 | AGUUAGCAAUAUUACGGGGU | -3.76 ± 0.46 | -2.61 ± 0.33
53 | UAACAGCAAUAUUACGACCC | -2.15 ± 0.18 | -1.42 ± 0.19
54 | CCGUAGCAAUAUUACGGUAC | -3.37 ± 0.3 | 
55 | AGUCAGCAAUAUUACGUCAA | -2.24 ± 0.12 | -1.09 ± 0.1
56 | CUCGAGCAAUAUUACGAAGA | -2.78 ± 0.29 | -1.64 ± 0.25
57 | UGGUAGCAAUAUUACGAUAG | -1.94 ± 0.2 | -0.14 ± 0.14
58 | GUAUAGCAAUAUUACGCGAU | -2.03 ± 0.24 | -1.73 ± 0.26
59 | UGCAAGCAAUAUUACGGGGA | -3.21 ± 0.33 | -1.32 ± 0.15
60 | ACUUAGCAAUAUUACGUCAG | -1.93 ± 0.11 | -1.56 ± 0.12
61 | CUGAAGCAAUAUUACGCGCC | -3.07 ± 0.31 | 
62 | UGAUAGCAAUAUUACGCCCG | 0.00499 ± 0.21 | -0.455 ± 0.2
63 | UAGCAGCAAUAUUACGGCAC | -2.14 ± 0.18 | 0.167 ± 0.21
64 | AACGAGCAAUAUUACGAAAG | -2.83 ± 0.48 | -1.43 ± 0.32
65 | ACUUAGCAAUAUUACGGUCU | -1.41 ± 0.088 | 0.0181 ± 0.082
66 | CAUCAGCAAUAUUACGCACG | -0.443 ± 0.086 | 0.189 ± 0.11
67 | GCAUAGCAAUAUUACGCUCU | -1.81 ± 0.12 | -0.894 ± 0.12
68 | AUCCAGCAAUAUUACGCUUU | -0.879 ± 0.076 | -0.641 ± 0.086
69 | GUUAAGCAAUAUUACGAAUG | -2.32 ± 0.24 | -1.59 ± 0.21
70 | UAUUAGCAAUAUUACGACCA | -0.42 ± 0.18 | -0.894 ± 0.19
71 | AUGUAGCAAUAUUACGAUCA | -0.747 ± 0.22 | -0.492 ± 0.18
72 | CCCAAGCAAUAUUACGGCGU | -3.85 ± 0.19 | -2.4 ± 0.13
73 | CGGAAGCAAUAUUACGGAAU | -2.11 ± 0.16 | -1.08 ± 0.19
74 | UACGAGCAAUAUUACGAACG | -2.96 ± 0.26 | -2.05 ± 0.16
75 | UCGCAGCAAUAUUACGAAUA | -2.57 ± 0.22 | -1.74 ± 0.16

Source: the supplement of paper PMC7877785
